The text below walks through data of FireProtDB (doi:10.1110/ps.051838206).

For this data set the following is noted: Pseudomonas aeruginosa (strain ATCC 15692 / DSM 22644 / CIP 104116 / JCM 14847 / LMG 12228 / 1C / PRS 101 / PAO1); pH 7; 25 °C; GdnHCl; Fluorescence; Tris-HCl 100 mM; reversible: Yes; whole UniProt chain shown.

Values joined by “and” are separate entries in the source; they are usually repeats but may differ in a detail not shown here. Equal entries are not always repeated.

B1: Azurin wild type, P00282 (protein)
chain: MLRKLAAVSLLSLLSAPLLAAECSVDIQGNDQMQFNTNAITVDKSCKQFTVNLSHPGNLPKNVMGHNWVLSTAADMQGVVTDGMASGLDKDYLKPDDSRVIAHTKLIGSGEKDSVTFDVSKLKEGEQYMFFCTFPGHSALMKGTLTLK
With B1, the unfolding free energy is 5.98 kcal/mol and 12.9 kcal/mol.
